In paper doi:10.1101/854158 (bioRxiv, 2019):

B1: FANCA (natural protein)
chain: MSDSWVPNSASGQDPGGRRRAWAELLAGRVKREKYNPERAQKLKESAVRLLRSHQDLNALLLEVEGPLCKKLSLSKVIDCDSSEAYANHSSSFIGSALQDQASRLGVPVGILSAGMVASSVGQICTAPAETSHPVLLTVEQRKKLSSLLEFAQYLLAHSMFSRLSFCQELWKIQSSLLLEAVWHLHVQGIVSLQELLESHPDMHAVGSWLFRNLCCLCEQMEASCQHADVARAMLSDFVQMFVLRGFQKNSDLRRTVEPEKMPQVTVDVLQRMLIFALDALAAGVQEESSTHKIVRCWFGVFSGHTLGSVISTDPLKRFFSHTLTQILTHSPVLKASDAVQMQREWSFARTHPLLTSLYRRLFVMLSAEELVGHLQEVLETQEVHWQRVLSFVSALVVCFPEAQQLLEDWVARLMAQAFESCQLDSMVTAFLVVRQAALEGPSAFLSYADWFKASFGSTRGYHGCSKKALVFLFTFLSELVPFESPRYLQVHILHPPLVPGKYRSLLTDYISLAKTRLADLKVSIENMGLYEDLSSAGDITEPHSQALQDVEKAIMVFEHTGNIPVTVMEASIFRRPYYVSHFLPALLTPRVLPKVPDSRVAFIESLKRADKIPPSLYSTYCQACSAAEEKPEDAALGVRAEPNSAEEPLGQLTAALGELRASMTDPSQRDVISAQVAVISERLRAVLGHNEDDSSVEISKIQLSINTPRLEPREHMAVDLLLTSFCQNLMAASSVAPPERQGPWAALFVRTMCGRVLPAVLTRLCQLLRHQGPSLSAPHVLGLAALAVHLGESRSALPEVDVGPPAPGAGLPVPALFDSLLTCRTRDSLFFCLKFCTAAISYSLCKFSSQSRDTLCSCLSPGLIKKFQFLMFRLFSEARQPLSEEDVASLSWRPLHLPSADWQRAALSLWTHRTFREVLKEEDVHLTYQDWLHLELEIQPEADALSDTERQDFHQWAIHEHFLPESSASGGCDGDLQAACTILVNALMDFHQSSRSYDHSENSDLVFGGRTGNEDIISRLQEMVADLELQQDLIVPLGHTPSQEHFLFEIFRRRLQALTSGWSVAASLQRQRELLMYKRILLRLPSSVLCGSSFQAEQPITARCEQFFHLVNSEMRNFCSHGGALTQDITAHFFRGLLNACLRSRDPSLMVDFILAKCQTKCPLILTSALVWWPSLEPVLLCRWRRHCQSPLPRELQKLQEGRQFASDFLSPEAASPAPNPDWLSAAALHFAIQQVREENIRKQLKKLDCEREELLVFLFFFSLMGLLSSHLTSNSTTDLPKAFHVCAAILECLEKRKISWLALFQLTESDLRLGRLLLRVAPDQHTRLLPFAFYSLLSYFHEDAAIREEAFLHVAVDMYLKLVQLFVAGDTSTVSPPAGRSLELKGQGNPVELITKARLFLLQLIPRCPKKSFSHVAELLADRGDCDPEVSAALQSRQQAAPDADLSQEPHLF
B2: FAAP100 (natural protein)
chain: MAGAAPRVRYLAGFCCPLGGLAAGKPRVLCHEAEVFLSTGSELVYVYDQEGGLLTAAFRFPDQVWHLELLAPRRLLYALCARRGLYCLSLDHPGRSRSTSQDDRDSEDGDQPSPVIPVDPDACILPDAALCAFTLLDSVLVTLVQGPARWKMQLFEQPCPGEDPRPGGQIGEVELSSYTPPAGVPGKPAAPHFLPVLCSVSPSGSRVPHDLLGGSGGFTLEDALFGLLFGADATLLQSPVVLCGLPDGQLCCVILKALVTSRSAPGDPNALVKILHHLEEPVIFIGALKTEPQAAEAAENFLPDEDVHCDCLVAFGHHGRMLAIKASWDESGKLVPELREYCLPGPVLCAACGGGGRVYHSTPSDLCVVDLSRGSTPLGPEQPEEGPGGLPPMLCPASLNICSVVSLSASPRTHEGGTKLLALSAKGRLMTCSLDLDSEMPGPARMTTESAGQKIKELLSGIGNISERVSFLKKAVDQRNKALTSLNEAMNVSCALLSSGTGPRPISCTTSTTWSRLQTQDVLMATCVLENSSSFSLDQGWTLCIQVLTSSCALDLDSACSAITYTIPVDQLGPGARREVTLPLGPGENGGLDLPVTVSCTLFYSLREVVGGALAPSDSEDPFLDECPSDVLPEQEGVCLPLSRHTVDMLQCLRFPGLAPPHTRAPSPLGPTRDPVATFLETCREPGSQPAGPASLRAEYLPPSVASIKVSAELLRAALKDGHSGVPLCCATLQWLLAENAAVDVVRARALSSIQGVAPDGANVHLIVREVAMTDLCPAGPIQAVEIQVESSSLADICRAHHAVVGRMQTMVTEQATQGSSAPDLRVQYLRQIHANHETLLREVQTLRDRLCTEDEASSCATAQRLLQVYRQLRHPSLILL

What was measured:
cryo-EM structure = biological target: the molecule itself; test: cryo-EM structure
FANCA = biological target: B1; test: cryo-EM structure

| binding result (FANCA) | Binder | stoichiometry N (cryo-EM structure) |
| --- | --- | --- |
|  | B1 | 2 |
| binds | B2 |  |
